This test concerns the target recombinant SARS-CoV-2 Spike protein antigen (Z03501, Genscript) (SARS-CoV-2) (UniProt P0DTC2).

Broadly, the Kd is the equilibrium constant for the complex coming apart. A word on the koff: it is the first-order rate constant of dissociation. What is called kon is the rate constant with which the complex forms. “Monoclonal antibody against the SARS-CoV-2 Spike protein (A02038, Genscript)”: the dissociation constant Kd came out at 2.39 nM, the koff came out at 0.000603 s⁻¹ and the kon worked out at 252000 M⁻¹ s⁻¹.

Values taken from patent publication US20240036044A1.
